The DeepSol protein solubility set

assay: soluble on expression in E. coli; label from the status in PepcDB or PDB records

Row | Sequence | soluble on expression in E. coli
1 | SMKAIVVINLVKINKKIIPDKIYVYRLFNDPEEELQKEGYSIYRLAYENVGIVIDPENLIIATTKELEYEGEFIPEGEISFSELRNDYQSKLVLRLLKENGIGEYELSKLLRKFRKPKTFGDYKVIPSVEMSVIKHDEDFYLVIHIIHQIQSMKTLWELVNKDPKELEEFLMTHKENLMLKDIASPLKTVYKPCFEEYTKKPKLDHNQEIVKYWYNYHIERYWNTPEAKLEFYRKFGQVDLKQPAILAKFASKIKKNKNYKIYLLPQLVVPTYNAEQLESDVAKEILEYTKLMPEERKELLENILAEVDSDIIDKSLSEIEVEKIAQELENKIRVRDDKGNSVPISQLNVQKSQLLLWTNYSRKYPVILPYEVPEKFRKIREIPMFIILDSGLLADIQNFATNEFRELVKSMYYSLAKKYNSLAKKARSTNEIGLPFLDFRGKEKVITEDLNSDKGIIEVVEQVSSFMKGKELGLAFIAARNKLSSEKFEEIKRRLFNLNVISQVVNEDTLKNKRDKYDRNRLDLFVRHNLLFQVLSKLGVKYYVLDYRFNYDYIIGIDVAPMKRSEGYIGGSAVMFDSQGYIRKIVPIKIGEQRGESVDMNEFFKEMVDKFKEFNIKLDNKKILLLRDGRITNNEEEGLKYISEMFDIEVVTMDVIKNHPVRAFANMKMYFNLGGAIYLIPHKLKQAKGTPIPIKLAKKRIIKNGKVEKQSITRQDVLDIFILTRLNYGSISADMRLPAPVHYAHKFANAIRNEWKIKEEFLAEGFLYFV | soluble
2 | MGSDKIHHHHHHMLNEMEKTVLQMIMAGSDISRVDISRALGISKPVVSKAVNRLIELGFVKEAGRKESSSKGGRKPVLLSFVPESRYVIGVDIGGTKIDAVLTDLVGNVLNKEHILLPSNLDKRKLLELIKKVIHPFLVYERILGIGIGIPGTVDEDHLVKRIPAFDVTDWDLKEELEKTFGYPVFVENNANLDAFAEAKIGAGRGFRCVLLISVGWGIGSGIVYDGKIFRGARGKAGEFGHIVTDWSKEKEIVLEKGFGHLEEWFSGFSMSKRFGKSPEWVFEKRHNEIKKNLEHFGVAVANAIVLFDPDVVIIKGGIGLHQFEKISAVVRSVVSKIVPEDILKDVEIRKGEIEEYGVAIGGALFVIENILGLKGGGKYEGCQASREVGSKAGV | not soluble
3 | GPGSMWVCGEAVLMRALNLLHARVRRCMRFSCRIPPQYCECPCRRMRVCPLRRDVSLIVLLFGLTPTTFSFSATSHDASRTKATRTHTHTHTPLFPARPMGSPLIAVIGPNPAFQKTLALDELRVDEVNRAATVHSYTGGKGTNFCRASACCKESPHFCRTTLHTFVGGKTGERVIDLLHQEGIAVYPVTVPAETRTCITCLDTQNSTMTELIEPSAAVPDDAAKDMDRALLKALEHAGGMAIMGSLPDGSSPDLYTRWTEMAAAAQKPVLIDAVKGIEASLKVPGVHSILKVNMRELNKLTGQSTPESAFEYAMQMWTVRVLAVTDGPRSAYIQERGQPLQVVHIPKVDGVVSPLGAGDTADAIFLAKYIHGTTPVEAFRLALAAASANCLQKEAGVFAQHEMRRIADGITIGSSRPHSSSNTRA | not soluble
4 | EERFAELFAAVDWISLGGGIHFTAENYPLETFAERLKHFSKTYDVTIFLEPGEAAITKSTTLEVSVLDTLYNEKNLAIVDSSIEAHMLDLLIYRENAKLEQNQGPYEIMVCGKSCLAGDIFGTFRFPEPLKIGDRLSFQDTAGYTMVKKNWFNGVTMPAIVIKECNGALTIQRQFSYNDYQKSLS | not soluble
5 | GPGSMALGSGIGLVPMWSSCPSVNPPTFPKGGIEILRQSLEAQEEVERTFREREAGHIECLNFKKSLRHLLRKQNERREELQLVEQRASERTQALLDELLIVVRERLKAMSPEGYQSITFDNGDMYEGNWKSCRMHGTGVMRRVADNDIYEGEWFFGVRNGNGMCCSPNFGTLYSGKWLAGKWHGRGELAEPEGLYIGDFVDGQIRGYGEYLYREGYAYKGDWVNGVYEGSGTFFYTNGARYEGQWRNGYEHGRGTMTYYNGDVYTGDWCNGRKHGTGTYTSKLLQYEGGWSSGAVHGIGKCTYADGSMYKGSWCRGLYDGDGEFVSQDKKCSYKGEFRGGKRCGRGVYQCGEVEYSGDWLDDRRHGVGEIKTRDGRVFRGTWSHDEPHCEVVPGCNLEGTSLSYCGGRGAPIAPEEPDPVLNMRLGLPDEVIDCMADAPT | not soluble
6 | DLFFGWGRKKSGLKAMNLAKKYKAKFILLEDGFIRSLNLGVENSPSFSMVKDDIGIYYDATMPSKLENLLNTCEFKDEEIKQAKKAIELIKKYKISKYNNNLDIPDNYFQKDEKRVLIITQTANDASLEFGLAKDFKTLDMIKDAIKENPKSTIYIKIHPDVLSGKKQSDLDLNSLPKECILITENFNPIALLEFFDKVYTKTSGMGFEALMQECECICYGMPFYAGWGLTKDKLECKRRMQKRSLEEVFYAAYILYAEY | not soluble
